Test results published in paper PMC10100567.

Biological target: high-affinity IgE receptor FcεRI on the surface of RBL-2H3 cells (rat (endogenous in RBL-2H3))
Assay: Ligand Tracer

Kd: 1.3 nM
Substance: Cy5-labeled monoclonal mouse anti-DNP IgE (clone SPE-7) (antibody)
